The values that follow come from paper PMC11955279 (2025).

To fix the notation:
B1: AtSEP3 (…3), wild type, in pGADT7 [Arabidopsis thaliana] / AtAP1 (APETALA1), in pGBKT7 [Arabidopsis thaliana] (parent complex)
chain 1: MGRGRVELKRIENKINRQVTFAKRRNGLLKKAYELSVLCDAEVALIIFSNRGKLYEFCSSSSMLRTLERYQKCNYGAPEPNVPSREALAVELSSQQEYLKLKERYDALQRTQRNLLGEDLGPLSTKELESLERQLDSSLKQIRALRTQFMLDQLNDLQSKERMLTETNKTLRLRLADGYQMPLQLNPNQEEVDHYGRHHHQQQQHSQAFFQPLECEPILQIGYQGQQDGMGAGPSVNNYMLGWLPYDTNSI
chain 2: not shown

The variants in the first test derive from B1. The test is described as follows: yeast two-hybrid β-galactosidase activity assay; parent: 51; read off a plot.
Consider chain 1 L99A, chain 1 L101A, chain 1 L108A, for which the response is ~21 β-galactosidase units.

Turning to chain 1 L99A, chain 1 L101A, the response was ~24 β-galactosidase units. On the same count and under the same terms, the result for chain 1 L99A, chain 1 L101A, chain 1 L108A, chain 1 L115A reads ~25 β-galactosidase units; that for chain 1 L99A, ~31 β-galactosidase units; that for chain 1 L99A, chain 1 L101A, chain 1 L108A, chain 1 L115A, chain 1 L116A, ~15 β-galactosidase units.

The next test covers variants of B1. The test is described as follows: yeast two-hybrid β-galactosidase activity assay; parent: 26; read off a plot.
For chain 1 L120A, the response is ~8.7 β-galactosidase units.

Regarding chain 1 L108A, the response is ~15 β-galactosidase units. With chain 1 L101A, the response was ~14 β-galactosidase units. Still for that read-out and setting: the value for chain 1 L99A was ~16 β-galactosidase units; that for chain 1 L116A was ~11 β-galactosidase units. Take chain 1 L115A: the response is ~13 β-galactosidase units.
